18 sequences from a protein production outcome set (Wang et al. 2014) can be followed below.

The data set can be described thus: label from the status in PepcDB records.
As to “MNASLTPDQVSKKLKQFFSDHLPISQFMGLEIESYDGDTLILTAPLEPNINDKQTAFGGSLYNAAVMACWGMVYLKTQEENIACNQVVTEGNMKYIAPVYGRIRAICHAPDEEELANFFDHFERKGKARISLEAAIYNDACVMKIEPETKPSVKFNGQYAILKNQ”, the protein production result is given as “not failed”.
To “MNAWNTIYDQFNPIAFSLGSIEVHWYGLAYACAIVTAFYMALRMIQKDPKRFPIERKEFESYFLWAELGIVLGARIGYILIYEPNSGYYLTHFWQIFNPFDSHGNFVGIRGMSYHGGLVGFLIASYLYSRKDLKKLLIYLDLIAISLPLGYVFGRIGNFLNQELVGRIVPKDSHLGQIIGIMVDNELRYPSQLIEAFLEGVIVFLMVMWAKKHTKTHGLLIVVYGLGYSLMRFIAEFYREPDSQMGVYFLNLSMGQILSLFMVIVSLGILLYATKNSKKIKENQ” belongs “failed”; to “MNDDSQDKIIHDIRIQLRKAATELSRWKLYGSSKWAAEALAGLAEAIDVDQTHSLADESPLRNKQGVPKQMFEIPQNGFGLSETEYDLYLLGSTLFDAKEFDRCVFFLKDVTNPYLKFLKLYSKFLSWDKKSQESMENILTTGKFTDEMYRANKDGDGSGNEDINQSGHQRANLKMVSNEHESQSNISSILKEINTFLESYEIKIDDDEADLGLALLYYLRGVILKQEKNISKAMSSFLKSLSCYSFNWSCWLELMDCLQKVDDALLLNNYLYQNFQFKFSENLGSQRTIEFNIMIKFFKLKVFEELNGQLEDYFEDLEFLLQVFPNFTFLKAYNATISYNNLDYVTAESRFDDIVKQDPYRLNDLETYSNILYVMQKNSKLAYLAQFVSQIDRFRPETCCIIANYYSARQEHEKSIMYFRRALTLDKKTTNAWTLMGHEFVELSNSHAAIECYRRAVDICPRDFKAWFGLGQAYALLDMHLYSLYYFQKACTLKPWDRRIWQVLGECYSKTGNKVEAIKCYKRSIKASQTVDQNTSIYYRLAQLYEELEDLQECKKFMMKCVDVEELLEGIVTDETVKARLWLAIFEIKAGNYQLAYDYAMGVSSGTSQEIEEARMLARECRRHM”, “failed”; to “MNDGKATPGEAGCRENQLLKLPGFGNFTIIDRYIARQFLTIFLFALASFAALFILINLVENLDRFLDRHISFGRILIYYLSGLPDTFLLTSPLSVLLASLFVTGKLSMQSELPALKSAGMSLSRLMKPFLLVTMAIAALNTINSCFIAPAMYDWSKGFEKRYLKKQQDNGEEPLHIRESNNRILTVAKIGPDKKSATTVSLETFNGSQIVSRIDADSLRIITRHKYWIFYNTKQRTFSKGAETLVTRAGADTLKLSLAPNTFKMIDTDPDEMNIVQHIDFIWQKARSGLPGLERATVKLHTKLALPLASMIIVLIGVPLSSKKKRSGLAVEISISLLIGLLYLGMLKTIGSLGYDGLLNPVLAAWLPDILFIIAGTFLYRSADH”, “failed”.
Under “MNDGRMLGLFTFIIMIISIISQIIALSASQRNIYLGIRIPQEEINNTKIKAIGKRYIWSNLLLGIPIAALLSYCVYKINNDILYLAAIILFMAISFLLYYYYNRKILKIKKEEGWLKTKKQEIVIDTSFAKRKSERMVAGSRWFLLSLIFIVICLIVNVKQYPNIPYRYPTHWDINGRPNAYSLKSYMTIFSMPINQLILIAVMFFSYKITFWSKNELDGRNPKDSGERNIKFRNVWAIYAIVVNFFLQIIFLIQDFQIMHIVNTNPKFIIIAVITMTIVVICSSLIISIKVGQGGSRLKTRGNKSEFGINMRDDDKYWRLGNLFYCNKNDPSIFVQKRFGIGWTVNVGNKFGVLFYVLIIVFLIICIAISR” stands “failed”; under “MNDILQLTIVLIASLIATLVSRRLKIPAVVGQMLVGILIAPSVLGLVHSGHVLEVMSEIGVILLMFLAGIESDLTVLKKNFKASMLVAVGGVIVPLIAFGLVAFGFGYGISTSFFYGIVFAATSVSITVEVLQEYGKLSTRAGSIILGAAVVDDILAVLILSIFTSFKNGGSGSHLFIQFLLELLFFAFLFLVHKLIPRFWKFVQKLPIANKNTIVALIICLGLSLLADSVGMSAVIGSFFAGLAISQTEVSHKIEEYTSAIGYVIFIPVFFVLIAISVQFDSLIHHPWIILLFTFLAILTKFIPAYFVGKASKLSTGESMLIGTGMISRGEMALIVAQIGLTSAIITDEVYSELVIVIILATVLAPFLIKMVLKKYDN”, “failed”.
Consider “MNDLSQWSISKDSNLDSPWIEGIPGCGIPGAGSLVEHIDRQILVLQRDGRYIVGLLRSYDQYANLVLENTFERFVLNDSYCDEPLGVFIIRGENVALLGEVDGEKESQWLSHLHTVSLEDTKKTIRGKRQATKALLHSQPERVEWTFYDDAFF”, for which the protein production result is on record as “not failed”.
Under “MNDRACVSARTRWPLVSVLIPAFNHARFVQRCLDSVLEDPYPCKEIVIIDDGSRDATGEKISQWISDHGHRLPVHFVQRENRGVAATLNELALRARGEYLRLGASDDYLLPGGLDAQVRYLRGHPQKLAVIGDACVVDAHGQLMHASAMRDLHRVDKDLYRSESGIRHAVIRQWAVSGAVALLRRSALDARSRWDESLRIEDWDFFLRLVAGNALGFIDLPVCAYRLHGNNLSKTADVPARIANLCESRQVALRCAPLFDEPDRMLLHAQARYIAAKVEFLRRRPHRIAMHLAVYAGLSLSARWRPKRVARAAELA” stands “failed”; under “MNDRKILVAYFSCSGVTKAVAEKLAAITGADLYEIKPEVPYTEADLDWNDKKSRSSVEMRDALSRPAISGTLFHPEKYEVLFVGFPVWWYIAPTIINTFLESYDFAGKIVVPFATSGGSGIGNCEKNLHKAYPDIVWKDGKLLNGQITRDLVTEWFEKIRL”, “not failed”.
For the sequence “MNDSIKKINYLFICLFIFLNPLIPYNVKIHNNITVSDILLLVIFVLFLVEILRNRQKLKECFYIMLGDKTLFCLILLFIVMMISVTYAKEKPLALEESLRFFCYIGLYIILSLSYREEKHFKGFVTSFVASVTLISIIGIFQKITGMGIPHQYDYKVNGVTMVRVAAVFGNPNTLAAFMILSIFPIVMFAFFEKNLKKKAFYSILSVLIVYNAALTGSRNSYMGLALGFCVLALIYSIKLILPIIVLGGASMFLPQVTSRLRSIDNKNLNDARIKLWKTALKMIKDHPLSGVGNGNYIANYDAYVKQYPELRYADYSRFPVHNSYLKIESELGIFGGIFFVATIVNVFLKLYNTYKKTDIKIKKAFYLGFIASTSAFLFMNFSDNLLFVPSITSFFWMFVAIGDRH”, the protein production entry is reported as “failed”.
As for “MNDTLLNAYSGIKTHQFGIDSLSNNIANVNTLGYRSNDPEFKTLFSSHLDALNAKSVVANDRNYGVTGSGNVLSNKDGEYMPSEGEFHMAYQGKGWFVIGPNKNGEITINKDGFSKKQDNFLTRAGNFARDADGYLVTPEGYYVYGIDLKKIKDGTLNSTARDEDIEKLHGNTLSPLQIPQDLTYQPVLSTKVNISVNLNPKDHLKGVQDFFLNDKGEIIKERFLNQDINALANNDNEPIDAITNRKLNISIQKEDGKKEDFVFTYGDAEKGENQFKTLGDLQKLLKEKTGLDLNLIKSEKDAKSPPLLLEIANPSQTPITFSLSGGIADKLGLKADGMELKKGISRDSVAIKIPYYSTEVDIYDKAGDKYLLQSEYYMTNSNDPTSSPTSKRKNQTWEVKSYIADPKNKTPINDPTWEIVGFDSATHKMKSAPMTLDFKGNKLTYSLDKSENHDSSDLSYQDSKLLEASQDGKPRGIFRDMRIEENGVISLAFSNGVVEPVARIGILAFTNDQGLRKIGGNLYEMQEGTINGENRPLSGNPILGWDEEGKLKFGKIRHKYLETSNVNAGNALTNLILMQRGYSMNARAFGAGDDMIKEAISLKK”, the protein production result is recorded as “failed”.
With “MNEIHQPLARRVWRSNVDEEMARMAECLKRFPLIAFDTEYPGIIFRTYFDSSSDECYRAMKGNVENTKLIQCGFTLFNAKGEIGGVWEINFSNFGDPSDTRNELSIEFLRRHGLDLQKIRDEGVDMFGYGFFPKLMTVFRSQKHVEFVTFQGAYDFAYFLSILNHGKLPETHGEFATEVVKVFGQVYDTKVMAGFCEGLGEHLGLSKLAQLLQITRVGRAHHAGSDSLMTALVFIKLKHVYEDSRFARGLIYGIGKSNLVAAPAPAPVPEPTLPLMCQQNVASYPVFHNGYVQNYEQPQLVSYDPSGAPWAFCNATGTYVQLTHLPASTFAYPSQTPSATVDYLGPVPNYYNNNACYVVE”, the protein production result is reported as “failed”.
Consider “MNEIILITGAYGMVGQNTALYFKKNKPDVTLLTPKKSELCLLDKDNVQAYLKEYKPTGIIHCAGRVGGIVANMNDLSTYMVENLLMGLYLFSSALDSGVKKAINLASSCAYPKFAPNPLKESDLLNGSLEPTNEGYALAKLSVMKYCEYVSAEKGVFYKTLVPCNLYGEFDKFEEKIAHMIPGLIARMHTAKLKNEKEFAMWGDGTARREYLNAKDLARFISLAYENIASIPSVMNVGSGVDYSIEEYYEKVAQVLDYKGVFVKDLSKPVGMQQKLMDISKQRALKWELEIPLEQGIKEAYEYYLKLLEV”, for which the protein production entry was “failed”.
Under “MNEIYDREQMIKLLDLAKNTEMELPINLAIGLGLRISEVLGLTWDNIDFEENTITVNKITSRINGSVILKEPKTESSVRKISSPKELMSLLKEYKIKQNKNLLKSSIRNNNNLLFFNKKCEPIAEDVMSKKFKRFLEKNELPHIRFHDLRHSHVTLLINSKVPIKVISERVGHSNISTTLSVYSHVLKEMDKEASDKISESLFNANLEHHHHHH” stands “not failed”; under “MNEKKEQALFEYDAKLSISEAIPMGLQHVVAAVVGIVTPGIMIAKVCQLSPSDTTILIQTSLIFSAVATLIQLFPIFGKVGSRLPVMMGASFAYVPILMAIGADFGIAAIFGSQLVGSILVIIVGLFIKKIRVLFPPLVTGTVILSIGLSLFPVAIKYMAGGAGSADFGSARNWLVALLTFAIVFYFNYFAKGFLKLSAILNGMVIGYLISLALGMVSFEPVQNAKIVQVITPFHFGLDFQLVPIFTLVVMFIVDAVQAIGQFTATTVGAMDRDATDEELSGGIMGSGFTNFIGSLFGSIPVATFGQNVGLVTVTKVINKYVLVFASVILLIAGFVPKVAALLTTIPYAVIGGATISVFASISMTGIRMIASQEMTPRNTGVVGTALAFGIGVTLSTGSLAGFPTWVTTIFGNSEVILTTLVAVLLNVILKPKKRVALE”, “not failed”; under “MNELTQSDNYQLLNRELAAPDPWGLDANPFERERHTQMLRLALAQGSISSALEVGCAAGAFTVQLAPHCKRLTVIDVVPQAIERSRRRIRGSPHISWIVSDVQQFSPDERFDLIVVAEVLYYIGGIAEMRGAVRNLVRMLAPDGYLVFGSARDANCRRWGHVAGAETILGMLNETLLEVERLECRGESVNEDCLLACFRNPFSAS”, “failed”.
Under “MNENDKEYQASLKSLETENIIDRKFYRPIGFYFAKLLSRTRVTPNMVTILSIFVGLGGGLCFVHTPYDLRWAVAGILCMVVANIMDCIDGQLARLTGIKSEIGRILDGIAGDIWFACIYICFIIRLTAEYPDALGSMTTGILIAVGLLSGISHLVQAAVTDYYKTLHLFFISPEKGKEFERSTSIRRRVKAMPHGVNRLFSSLYYYYTLIQERATPRLQRLLDQLEADYPQNTIPETLRQHLRKDSRRIMNIVDFLTFNGRTIPLFLIVLSGHIWLYFVFEILILNTVLVLGIRRHEAMCRHHLKERR” stands “failed”; under “MNEQIPHDKSLDNSLTLLKEGYLFIKNRTERYNSDLFQARLLGKNFICMTGAEAAKVFYDTDRFQRQNALPKRVQKSLFGVNAIQGMDGSAHIHRKMLFLSLMTPPHQKRLAELMTEEWKAAVTRWEKADEVVLFEEAKEILCRVACYWAGVPLKETEVKERADDFIDMVDAFGAVGPRHWKGRRARPRAEEWIEVMIEDARAGLLKTTSGTALHEMAFHTQEDGSQLDSRMAAIELINVLRPIVAISYFLVFSALALHEHPKYKEWLRSGNSREREMFVQEVRRYYPFGPFLGALVKKDFVWNNCEFKKGTSVLLDLYGTNHDPRLWDHPDEFRPERFAEREENLFDMIPQGGGHAEKGHRCPGEGITIEVMKASLDFLVHQIEYDVPEQSLHYSLARMPSLPESGFVMSGIRRKS”, “not failed”.
